Molecular target: SARS-CoV-2 Beta-variant Spike with six stabilizing proline substitutions (S-6P) (SARS-CoV-2 Beta variant, strain)
Assay: BLI

B1: C143 variant VL T33N-G53V, IgG (antibody, V domains shown)
VH: EVQLVESGGGLVQPGGSLRLSCAASGFSVSTKYMTWVRQAPGKGLEWVSVLYSGGSDYYADSVKGRFTISRDNSKNALYLQMNSLRVEDTGVYYCARDSSEVRDHPGHPGRSVGAFDIWGQGTMVTVSS
VL: QSALTQPASVSGSPGQSITISCTGTSNDVGSYNLVSWYQQYPGKAPKLLIFEVTKRSSGISNRFSGSKSGNTASLTISGLQGEDEADYYCCSYAGASTFVFGGGTKLTVL
B1: binds.
